What all share (assay): cell-based or functional assay
Assay [1] addresses T1, Chryseobacterium sp-62563 deamidase C169S (Chryseobacterium sp-62563).
T1 sequence: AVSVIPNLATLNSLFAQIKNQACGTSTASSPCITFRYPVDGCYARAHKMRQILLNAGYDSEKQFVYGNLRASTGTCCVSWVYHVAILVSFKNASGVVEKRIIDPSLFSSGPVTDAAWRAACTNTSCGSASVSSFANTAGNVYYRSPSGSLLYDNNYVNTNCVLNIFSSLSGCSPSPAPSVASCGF

Assay [2] has as its target T2, Chryseobacterium sp-62563 deamidase C230N (Chryseobacterium sp-62563).
T2 sequence: T1 sequence with S60C, C121N

For assay [3], the target named is T3, Chryseobacterium sp-62563 deamidase Q126F (Chryseobacterium sp-62563).
T3 sequence: T1 sequence with Q17F, S60C

Assay [4] addresses T4, Chryseobacterium sp-62563 deamidase Q126Y (Chryseobacterium sp-62563).
T4 sequence: T1 sequence with Q17Y, S60C

In assay [5] the target is T5, Chryseobacterium sp-62563 deamidase Q130D (Chryseobacterium sp-62563).
T5 sequence: T1 sequence with Q21D, S60C

The target of assay [6] is T6, Chryseobacterium sp-62563 deamidase Q130E (Chryseobacterium sp-62563).
T6 sequence: T1 sequence with Q21E, S60C

The target of assay [7] is T7, Chryseobacterium sp-62563 deamidase Q160E (Chryseobacterium sp-62563).
T7 sequence: T1 sequence with Q51E, S60C

Assay [8] addresses T8, Chryseobacterium sp-62563 deamidase Q160R (Chryseobacterium sp-62563).
T8 sequence: T1 sequence with Q51R, S60C

Assay [9] concerns the target T9, Chryseobacterium sp-62563 deamidase Q160W (Chryseobacterium sp-62563).
T9 sequence: T1 sequence with Q51W, S60C

In assay [10] the target is T10, Chryseobacterium sp-62563 deamidase Q172E (Chryseobacterium sp-62563).
T10 sequence: T1 sequence with S60C, Q63E

The target in assay [11] is T11, Chryseobacterium sp-62563 deamidase Q172N (Chryseobacterium sp-62563).
T11 sequence: T1 sequence with S60C, Q63N

Assay [12] has as its target T12, Chryseobacterium sp-62563 deamidase polypeptide (second polypeptide, deamidase domain), wildtype (Chryseobacterium sp-62563).
T12 sequence: T1 sequence with S60C

The results in this text go back to patent US20250215412A1 (NOVOZYMES A S, published 2025).

Positions count from the first letter of the chain named. In names and notes the source's numbering stands.

B1: Chryseobacterium sp-62563 propeptide F99A (protein)
chain: NQDPNLVAKESNETAMKDFGKTVPVGIEKEDGKFKISFMVTAQPYEIKDSKENAAYISMIKTAVENETPIHVFLKANTNEIAKVDKATDDDIRYFKSVATKEVKEENRK
B1: the Leakage activity in [1] is 1%; in [2], 0%; in assay [4], 3%; in assay [9] it was 2%; in assay [12], 4%. Further, the Relative activity of maturated deamidase (% initial rate) in assay [1] is above 100; in [2], 42; in [3], 52; in assay [4], 98; in assay [5], above 100; in [6] it was 44. The Relative activity of maturated deamidase (% initial rate) in assay [7] was above 100; in assay [8], 86; in [9] it was above 100; in assay [10], 64; in assay [11] it was 51; in assay [12], 52. The NanoDSF thermal unfolding temperature in assay [12] turned out to be 76.4 ° C.
